Measured values reported in publication PMC8131098.

How the values were obtained:
Assay in all cases: MST
Conditions in all cases: 50 nM RED-NHS labeled PdtaR, RNA up to 10 uM, autophosphorylation buffer (composition and pH not in material) with 0.025% Tween-20, 50 uM ATP …
[1] = test system: PdtaR (unphosphorylated) (Mycobacterium tuberculosis Erdman (ATCC 35801))
[2] = test system: PdtaR~P (phosphorylated by PdtaS) (Mycobacterium tuberculosis Erdman (ATCC 35801))
[3] = target: T1, PdtaR (unphosphorylated) (Mycobacterium tuberculosis Erdman (ATCC 35801)) (UniProt P9WGM3)
T1 sequence: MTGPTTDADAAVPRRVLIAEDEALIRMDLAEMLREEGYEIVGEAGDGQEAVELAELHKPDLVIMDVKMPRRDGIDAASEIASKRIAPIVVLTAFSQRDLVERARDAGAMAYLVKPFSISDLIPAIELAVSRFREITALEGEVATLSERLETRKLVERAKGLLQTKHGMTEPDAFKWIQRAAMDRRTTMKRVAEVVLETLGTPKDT

Substance	Kd [1]	Kd [2]	Kd [3]
PPE1-5' RNA	1280 nM	410 nM	
GGCAAAAAAUUCGUGCACCAACCCCCCUCCGAGCGCUGCUAAGCUCAAUGUGCAGUGCAAAGGUGCAGAUAAUGAUGGCGCACCGGAACGGCGAGCGUAAGGAAA [rv3864 RNA]			2590 nM
rv3864 RNA	2590 nM	2120 nM	
